From article PMC12062221
Values belong to the substance of their own block, whether it stands above or below them.

Columns and labels:
[1] = target: human histone (H3-H4)2 tetramer (human) (UniProt P68431); test: MST
[2] = target: fluorescently labeled human H2a(G129C)-H2b dimer (human) (UniProt P04908); test: MST

Kd [1]: 107 nM
Substance: αSyn(1-103) (from UniProt P37840 1-103) (domain or fragment)

Kd [2]: 32400 nM
Substance: αSyn(1-131) (from UniProt P37840 1-131) (domain or fragment)

KD of one of two binding sites [2]: 500 nM
KD of the other of two binding sites [2]: 2600 nM
Substance: αSyn(121-140) peptide (from UniProt P37840 121-140)
